Earlier results on 1 substance are cited in article PMC8894873.

A word on the pKa: it is the negative logarithm of the acid dissociation constant.

The target in this series is Glu35 (UniProt position 53, CAAKFESNFNT). Briefly: not stated (a cited reference title indicates two-dimensional 1H NMR).

Consider “Lysozyme (lysozyme C, presumably hen egg-white) (Gallus gallus (inferred; the article says only 'lysozyme'))”, for which the pKa is 6.3.
